Earlier results on one substance are cited in article PMC4976022.

The data set has as its target HPr (Escherichia coli) (UniProt P0AA04).

By Kd is commonly meant the equilibrium constant for the complex coming apart. With “EIN N-terminal domain (from UniProt P08839)”, the Kd is 7 µM.
